“Also recorded” adds a separate entry of the source.
Tests used:
[1] = test system: vaginal distension (VD) animal model of stress urinary incontinence (SUI); assay: Leak point pressure (LPP) in rat vaginal distension model for stress urinary incontinence; format: in vivo; details: for area under curve (AUC) of urinary bladder leak point pressure: Day 0-14 after VD; for time course of leak point pressure (LPP): Day 4, 9 and 14 after VD; for leak point pressure (LPP) of urinary bladder: Cpd.1B single urethral injection Day 0, Duloxetine 20 mg/kg oral daily
Description: The urethra is a conduit for elimination of urine from the bladder. It is composed of an epithelium lining the lumen, lamina propria with a prominent vascular plexus, smooth muscle and an outer layer of striated muscle (called external urethral sphincter). The urethra functions in coordination with the bladder: it remains closed during bladder filling to maintain continence and it relaxes during voiding to allow flow of urine. These processes are controlled by parasympathetic, sympathetic and somatic innervation. Parasympathetic nerves release nitric oxide to relax the urethra during bladder voiding, while sympathetic nerves release noradrenaline to contract the urethra during bladder filling. The striated muscle receives somatic innervation that contracts the muscle ensuring continence during bladder filling. Using the model of stress urinary incontinence (SUI) in female rats the hypothesis was tested if Cpd.1B can be effective against SUI in the vaginal distension (VD) model by facilitating muscle growth and regeneration. […] Vaginal Distension (VD) was applied for 4 hours to female Sprague-Dawley Female rats under isoflurane anesthesia. 1 hour after the end of VD, the abdomen was surgically opened to access the urethra and rats received two injections of vehicle or Cpd.1B (10 μg each) through a Hamilton syringe at approximately 5 and 7 o'clock positions. Sham treated animals (catheter without inflation) were treated with vehicle as controls. […] Rats were then put in a supine position on a heated pad at 37° C. The bladder was emptied manually and filled with room temperature saline through the bladder catheter at 3.0 ml/h. After bladder filling with 0.4-0.5 ml, the abdomen was slowly depressed manually to increase abdominal pressure until fluid leakage was observed from the urethral orifice.

[2] = test system: vaginal distension (VD) animal model of stress urinary incontinence (SUI); assay: Histological assessment of urethral integrity after vaginal distension (Masson trichrome scores); format: in vivo, rat; details: mid-urethra cross-sections, Day 9 and 14 after VD
Experimental: Vaginal Distension (VD) was applied for 4 hours to female Sprague-Dawley Female rats under isoflurane anesthesia. 1 hour after the end of VD, the abdomen was surgically opened to access the urethra and rats received two injections of vehicle or Cpd.1B (10 μg each) through a Hamilton syringe at approximately 5 and 7 o'clock positions. Sham treated animals (catheter without inflation) were treated with vehicle as controls. […] From 2 animals of each group, the urethra-vaginal tissues were harvested (cross-section of the mid-urethra and anterior vagina) on Day 9 and 14, and the tissues immersed in neutral buffered formalin containing 4% formaldehyde for a period of 4 h, then embedded in paraffin. Sections of 5 μm were stained with the standard procedures of Hemalun-Eosin (HE), Masson Trichrome (MT) and Picrosirius red. Based on morphology and tissue integrity, histology scores were allocated to the outer circular muscle layer (OCML), the inner longitudinal muscle layer (ILML) and the endomysial tissue of mid-urethral sections, and Day 9 and 14 sampled. The following histological scores were applied to the different layers and averaged per group: • Outer Circular Muscle Layer (OCML, skeletal muscle): • 0=circumferential regular • 1=circumferential focally thinned • 2=discontinued • 3=mostly absent • Inner Longitudinal Muscle Layer (ILML, smooth muscle): • 0=mid-sized to large fascicles • 1=small fascicles) • Endomysial tissue: • 0=thin, dense • 1=thickening by loose connective tissue • 2=focal replacement of muscles by connective tissue • 3=replacement of muscles by connective tissue

[3] = rat, in vivo
Experimental: (§1) For assessment of Cpd.1A exposure in rat tibialis anterior (TA) muscle, two injections of each 15 μl Cpd.1A at different doses (1, 3 or 10 μg per injection) into TA muscles of male or female rats were performed in adult rats. After 6, 24, 48 and 72 hours, TA muscles were harvested, divided into two parts to analyse RNA and protein content, and Cpd.1A RNA content was analysed by qPCR and IGF1 protein levels by human-specific IGF1 ELISA (Cat. #E20, Mediagnost, Reutlingen, Germany). Total RNA was extracted from flash frozen TA muscle tissues (ca. 10 mg) using Norgen's Animal Tissue RNA Purification Kit (Cat. #25700). A TaqMan assay was developed and validated to quantify Cpd.1A and Cpd.1B RNA from muscle tissues through absolute quantification. Both forward primer (5′ […] 3′; SEQ ID NO: 14) and reverse primer (5′ […] 3′; SEQ ID NO: 15) along with labelled probe with quencher (5′ FAM-CTGCTGCCGTAGCCTG-MGB-Q500 3′; SEQ ID NO: 16) were designed to be specifically bind to Cpd.1A and Cpd.1B RNA and ordered (www.microsynth.com). […] The Cpd.1A RNA copy numbers in TA muscles were assessed by calculating unknown values from standard curves. From qPCR data, half-life was calculated using a monoexponential decay function. […] After 24 and 72 hours, tissues were harvested, and Cpd.1B content was analysed by qPCR as specified above where standard curve template generated from Cpd.1B mRNA.

IGF1 protein = IGF1 protein expression in rat TA muscle after i.m. injection of Cpd.1A (human-specific IGF1 ELISA); format: in vivo; details: 3 and 10 μg doses i.m., after a delay of several hours
Experimental: as §1

CNCC[C@H](Oc1cccc2ccccc12)c1cccs1 [Duloxetine, reference compound]
area under curve (AUC) of urinary bladder leak point pressure [1]: clear increase in AUC; also recorded: beneficial efficacy | time course of leak point pressure (LPP) [1]: initial increase in LPP that declined thereafter to normal levels on Day 14 | leak point pressure (LPP) of urinary bladder ([1]; Day 4 after VD, vs. VD vehicle): initial increase of LPP; also recorded: significant increase of LPP; also recorded: increased LPP | leak point pressure (LPP) of urinary bladder ([1]; Day 14 after VD): control levels | endomysial tissue histology score [2]: further worsened this pathology | inner longitudinal muscle layer (ILML) histology score [2]: further increased the ILML score | outer circular muscle layer (OCML) histology score [2]: further deteriorated the OCML pathology | endomysial tissue histology score ([2]; listed as duloxetine): worsens the endomysium score | inner longitudinal muscle layer (ILML) histology score ([2]; listed as duloxetine): worsens the ILML score | outer circular muscle layer (OCML) histology score ([2]; listed as duloxetine): tends to worsen the OCML disorganization

B1: Cpd.1A: mRNA encoding human BDNF signal peptide, IGF1 pro-domain and mature human IGF1 (SEQ ID NO: 8), from pMA-T vector, N1-methylpseudouridine modified (nucleic acid)
DNA: AUGACCAUCCUGUUUCUGACAAUGGUCAUCAGCUACUUCGGCUGCAUGAAGGCCGUGAAGAUGCACACCAUGAGCAGCAGCCACCUGUUCUAUCUGGCCCUGUGCCUGCUGACCUUUACCAGCUCUGCUACCGCCGGACCUGAGACACUUUGUGGCGCUGAACUGGUGGACGCCCUGCAGUUUGUGUGUGGCGACAGAGGCUUCUACUUCAACAAGCCCACAGGCUACGGCAGCAGCUCUAGAAGGGCUCCUCAGACCGGAAUCGUGGACGAGUGCUGCUUCAGAAGCUGCGACCUGCGGCGGCUGGAAAUGUAUUGUGCCCCUCUGAAGCCUGCCAAGAGCGCCUAA
modifications: mRNA, N1-methylpseudouridine modified; misc_feature 1..348 RNA sequence of Cpd.1A and Cpd.1B; misc_feature 1..348 m1f (uridine is 1-methylpseudouridine)
duration of relevant Cpd.1A exposure in TA muscle [3]: up to 72 hours | half-life of Cpd.1A in TA muscle ([3]; im, 3 ug): 21 h | duration of IGF1 protein production at relevant concentrations in TA muscle (IGF1 protein): up to 72 hours

B2: Cpd.1B: mRNA encoding human BDNF signal peptide, pro-IGF1 and mature IGF1 without E-peptide, 120 bp poly-A tail, from pMK vector (nucleic acid)
chain: AUGACCAUCCUGUUUCUGACAAUGGUCAUCAGCUACUUCGGCUGCAUGAAGGCCGUGAAGAUGCACACCAUGAGCAGCAGCCACCUGUUCUAUCUGGCCCUGUGCCUGCUGACCUUUACCAGCUCUGCUACCGCCGGACCUGAGACACUUUGUGGCGCUGAACUGGUGGACGCCCUGCAGUUUGUGUGUGGCGACAGAGGCUUCUACUUCAACAAGCCCACAGGCUACGGCAGCAGCUCUAGAAGGGCUCCUCAGACCGGAAUCGUGGACGAGUGCUGCUUCAGAAGCUGCGACCUGCGGCGGCUGGAAAUGUAUUGUGCCCCUCUGAAGCCUGCCAAGAGCGCCUAA
modifications: 1-methylpseudouridine; poly-A tail; misc_feature 1..348 RNA sequence of Cpd.1A and Cpd.1B; misc_feature 1..348 m1f (uridine is 1-methylpseudouridine)
notes: mRNA encoding human BDNF signal peptide, pro-IGF1 and mature IGF1 without E-peptide, 120 bp poly-A tail, from pMK vector
area under curve (AUC) of urinary bladder leak point pressure [1]: clear increase in AUC; also recorded: beneficial efficacy | time course of leak point pressure (LPP) [1]: increase of LPP over time that returned to normal levels by Day 14 | leak point pressure (LPP) of urinary bladder ([1]; Day 4 after VD, vs. VD vehicle): significant increase in LPP; also recorded: significant increase of LPP; also recorded: increased LPP | leak point pressure (LPP) of urinary bladder ([1]; Day 9 after VD): further increased; also recorded: did not reach significance; also recorded: still showed increased LPP | leak point pressure (LPP) of urinary bladder ([1]; Day 14 after VD): full recovery to healthy LPP levels | endomysial tissue histology score [2]: completely prevented this impairment; also recorded: reverted | inner longitudinal muscle layer (ILML) histology score [2]: preventing this disruption; also recorded: reverted | outer circular muscle layer (OCML) histology score [2]: prevented this trend; also recorded: reverted

Source: patent US20240108693A1, “METHOD OF TREATING LOWER URINARY TRACT SYMPTOMS” (Versameb AG, priority 2021, published 2024)
